Data from the supplement of paper PMC10724198.
± gives the standard deviation of the averaged measurements.

system: Saccharomyces cerevisiae; experiment: protein stability index of tFT-peptide fusion (C-terminal peptide) (PSI (0-1 scale)); higher = more stable (slower turnover); settings: genetic background: wild type; temperature: 30 C
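Also: PSI is a weighted mean of sequencing reads over stability bins, variants kept only with over 10 reads, mCherry proximal and sfGFP distal, peptide attached via GGGS linker.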

Q: Which protein stability index does the source give for TVKYVVSTRAFI here?
A: Its protein stability index is 0.627 ± 0.044.

Q: For TVRFYHGSFRAP, which protein stability index is on record?
A: Its protein stability index is 0.727 ± 0.062.

Q: For TWGCAGAIRSVG, which protein stability index is on record?
A: Its protein stability index is 0.689 ± 0.094.

Q: Which protein stability index does the source give for TWPSGRASGHVG here?
A: Its protein stability index is 0.702 ± 0.0079.

Q: With TYFMSAFWPPGV as the sequence, how does the protein stability index read?
A: The protein stability index was 0.631 ± 0.03.

Q: How did the protein stability index turn out when TYGRPICFSFKR was run?
A: The protein stability index was 0.701 ± 0.049.

Q: For TYKNTVTRTKAY, which protein stability index is on record?
A: The protein stability index was 0.658 ± 0.02.

Q: For TYRGKIVAPGVL, which protein stability index is on record?
A: Its protein stability index is 0.656 ± 0.053.

Q: TYSTDRPGLHTW was tested. Which protein stability index did it give?
A: Its protein stability index is 0.698 ± 0.074.

Q: Which protein stability index does the source give for TYTPQVSSVFPI here?
A: Its protein stability index is 0.698 ± 0.018.

Q: For VACSVVVPGLGG, which protein stability index is on record?
A: The protein stability index was 0.69 ± 0.017.

Q: VAGATGRWIGHG was tested. Which protein stability index did it give?
A: The protein stability index was 0.6771 ± 0.0045.

Q: How did the protein stability index turn out when VAGGLRGLGLRA was run?
A: Its protein stability index is 0.67 ± 0.053.

Q: VAGGWVPGRGEG was tested. Which protein stability index did it give?
A: Its protein stability index is 0.69 ± 0.025.

Q: VAGWDRETGAWG was tested. Which protein stability index did it give?
A: Its protein stability index is 0.58 ± 0.083.

Q: VAIRLLCSPLGK was tested. Which protein stability index did it give?
A: Its protein stability index is 0.64 ± 0.029.

Q: How did the protein stability index turn out when VAIVGCVGKLIR was run?
A: The protein stability index was 0.6468 ± 0.0036.

Q: For VAKFYQVLMSEG, which protein stability index is on record?
A: The protein stability index was 0.684 ± 0.014.

Q: For VALNCWGYQWMG, which protein stability index is on record?
A: Its protein stability index is 0.689 ± 0.04.

Q: With VALSFYVLRRVP as the sequence, how does the protein stability index read?
A: The protein stability index was 0.594 ± 0.015.

Q: Which protein stability index does the source give for VALTYRSAGKWA here?
A: The protein stability index was 0.693 ± 0.058.

Q: VAMAGQQLYVTI was tested. Which protein stability index did it give?
A: The protein stability index was 0.665 ± 0.07.

Q: Which protein stability index does the source give for VAPPPAPFPPIP here?
A: Its protein stability index is 0.627 ± 0.023.

Q: For VARADLVVTFRI, which protein stability index is on record?
A: The protein stability index was 0.703 ± 0.073.

Q: VASKAGVLFGIR was tested. Which protein stability index did it give?
A: The protein stability index was 0.673 ± 0.12.

Q: Which protein stability index does the source give for VAVAAPVVRAVI here?
A: Its protein stability index is 0.69 ± 0.054.

Q: For VAVPGRFTGEGV, which protein stability index is on record?
A: Its protein stability index is 0.649 ± 0.061.

Q: With VAVRARRWASGP as the sequence, how does the protein stability index read?
A: Its protein stability index is 0.727 ± 0.055.

Q: How did the protein stability index turn out when VCARSVLFFWAA was run?
A: The protein stability index was 0.782 ± 0.25.

Q: How did the protein stability index turn out when VCDFVLALRGLT was run?
A: Its protein stability index is 0.649 ± 0.029.

Q: Which protein stability index does the source give for VCGCWWWCGVGW here?
A: The protein stability index was 0.657 ± 0.043.

Q: For VCGGCCEVEVGM, which protein stability index is on record?
A: Its protein stability index is 0.622 ± 0.041.

Q: Which protein stability index does the source give for VCGGVGGGDNGG here?
A: The protein stability index was 0.739 ± 0.036.

Q: Which protein stability index does the source give for VCGLLGGVWLCL here?
A: Its protein stability index is 0.611 ± 0.021.

Q: How did the protein stability index turn out when VCGREVKCGEGY was run?
A: Its protein stability index is 0.691 ± 0.027.

Q: With VCGSILSVFRAY as the sequence, how does the protein stability index read?
A: The protein stability index was 0.571 ± 0.0016.

Q: With VCGSIRVIAWGD as the sequence, how does the protein stability index read?
A: Its protein stability index is 0.671 ± 0.057.

Q: How did the protein stability index turn out when VCLPPPPLPPSC was run?
A: The protein stability index was 0.692 ± 0.041.

Q: With VCPPPIGYHSYQ as the sequence, how does the protein stability index read?
A: The protein stability index was 0.6674 ± 0.0019.

Q: VCRGWGVCGEWG was tested. Which protein stability index did it give?
A: The protein stability index was 0.6243 ± 0.0025.

Q: With VCRPLYNSMFGR as the sequence, how does the protein stability index read?
A: The protein stability index was 0.691 ± 0.023.

Q: VCSRGVCGFLSG was tested. Which protein stability index did it give?
A: Its protein stability index is 0.67 ± 0.01.

Q: For VCTVSGFGVLGA, which protein stability index is on record?
A: The protein stability index was 0.751 ± 0.15.

Q: For VCVAVVGGGCRG, which protein stability index is on record?
A: The protein stability index was 0.5726 ± 0.0032.

Q: Which protein stability index does the source give for VCVSLNVGGVRF here?
A: Its protein stability index is 0.658 ± 0.024.

Q: For VDIKQDTTNLRL, which protein stability index is on record?
A: The protein stability index was 0.718 ± 0.0086.

Q: How did the protein stability index turn out when VDLCRPLSRPTV was run?
A: Its protein stability index is 0.703 ± 0.016.

Q: VDLGAGVCSAVC was tested. Which protein stability index did it give?
A: Its protein stability index is 0.6195 ± 0.0056.

Q: With VDLYVRRVGVGG as the sequence, how does the protein stability index read?
A: Its protein stability index is 0.631 ± 0.037.

Q: For VDRRCTGLISSS, which protein stability index is on record?
A: The protein stability index was 0.668 ± 0.05.

Q: With VEAWGVGVGSTV as the sequence, how does the protein stability index read?
A: Its protein stability index is 0.676 ± 0.021.

Q: VECPFGTAGCHI was tested. Which protein stability index did it give?
A: The protein stability index was 0.659 ± 0.057.

Q: VEESNQILERQS was tested. Which protein stability index did it give?
A: Its protein stability index is 0.671 ± 0.0093.

Q: Which protein stability index does the source give for VEFGAPGFVEEW here?
A: Its protein stability index is 0.734 ± 0.021.

Q: For VEFGGICSYVGC, which protein stability index is on record?
A: Its protein stability index is 0.724 ± 0.036.

Q: VEFVSKSLGVGW was tested. Which protein stability index did it give?
A: Its protein stability index is 0.6756 ± 0.0053.

Q: For VEPTSDNGVVRR, which protein stability index is on record?
A: Its protein stability index is 0.662 ± 0.025.

Q: VESGVREEKCMS was tested. Which protein stability index did it give?
A: Its protein stability index is 0.708 ± 0.11.

Q: With VESSSMKGLLCD as the sequence, how does the protein stability index read?
A: The protein stability index was 0.66 ± 0.095.

Q: For VFACVHPLASLT, which protein stability index is on record?
A: Its protein stability index is 0.681 ± 0.048.

Q: With VFCSLAWFGLLL as the sequence, how does the protein stability index read?
A: Its protein stability index is 0.598 ± 0.054.

Q: For VFFLHGLVIYED, which protein stability index is on record?
A: Its protein stability index is 0.563 ± 0.069.

Q: VFGAAGVRFFVG was tested. Which protein stability index did it give?
A: Its protein stability index is 0.58 ± 0.022.

Q: VFGRSFFRLFRG was tested. Which protein stability index did it give?
A: Its protein stability index is 0.6444 ± 0.0031.

Q: With VFGSYFFIPFFL as the sequence, how does the protein stability index read?
A: The protein stability index was 0.498 ± 0.016.

Q: Which protein stability index does the source give for VFKLRLPAVPHT here?
A: Its protein stability index is 0.734 ± 0.09.

Q: Which protein stability index does the source give for VFLSCPCLFFWV here?
A: The protein stability index was 0.56 ± 0.022.

Q: VFLVLFDRLLPL was tested. Which protein stability index did it give?
A: The protein stability index was 0.669 ± 0.0073.

Q: VFMVLLLGFRRF was tested. Which protein stability index did it give?
A: Its protein stability index is 0.549 ± 0.011.

Q: For VFRCSGLFFRDG, which protein stability index is on record?
A: Its protein stability index is 0.6621 ± 0.0033.

Q: How did the protein stability index turn out when VFRHIGVIYNNF was run?
A: Its protein stability index is 0.65 ± 0.013.

Q: VFSALAYVVFKG was tested. Which protein stability index did it give?
A: Its protein stability index is 0.598 ± 0.032.

Q: With VFSLQCVSGIFV as the sequence, how does the protein stability index read?
A: The protein stability index was 0.568 ± 0.076.

Q: For VFTFGAGFGARL, which protein stability index is on record?
A: Its protein stability index is 0.801 ± 0.022.

Q: How did the protein stability index turn out when VFVPARGAFHGL was run?
A: Its protein stability index is 0.69 ± 0.018.

Q: VGACGEYGGFFR was tested. Which protein stability index did it give?
A: Its protein stability index is 0.67 ± 0.035.

Q: For VGACWGCGVCPL, which protein stability index is on record?
A: The protein stability index was 0.755 ± 0.049.

Q: Which protein stability index does the source give for VGCGGGEFSLFG here?
A: The protein stability index was 0.727 ± 0.034.

Q: VGCGGRGGRRGW was tested. Which protein stability index did it give?
A: The protein stability index was 0.599 ± 0.019.

Q: With VGCGVGGIGVLV as the sequence, how does the protein stability index read?
A: The protein stability index was 0.712 ± 0.1.

Q: For VGCLNCWLPFLG, which protein stability index is on record?
A: The protein stability index was 0.666 ± 0.048.

Q: How did the protein stability index turn out when VGCRGTIAIGGR was run?
A: Its protein stability index is 0.683 ± 0.0071.

Q: VGEGGGEVMGEA was tested. Which protein stability index did it give?
A: The protein stability index was 0.712 ± 0.085.

Q: Which protein stability index does the source give for VGFGARGVPGGG here?
A: Its protein stability index is 0.681 ± 0.019.

Q: Which protein stability index does the source give for VGFGVRTGETVV here?
A: Its protein stability index is 0.685 ± 0.048.

Q: Which protein stability index does the source give for VGFSAFSDSFFV here?
A: Its protein stability index is 0.7224 ± 0.0046.

Q: VGFVAWFRNVCR was tested. Which protein stability index did it give?
A: Its protein stability index is 0.653 ± 0.044.

Q: For VGFYRADSLLIF, which protein stability index is on record?
A: Its protein stability index is 0.5763 ± 0.0049.

Q: With VGGAAVGAGGGV as the sequence, how does the protein stability index read?
A: Its protein stability index is 0.691 ± 0.054.

Q: For VGGAWRMGRGGG, which protein stability index is on record?
A: Its protein stability index is 0.658 ± 0.018.

Q: For VGGEGSAGLQCR, which protein stability index is on record?
A: Its protein stability index is 0.6956 ± 0.0037.

Q: VGGFCSWVVAWF was tested. Which protein stability index did it give?
A: The protein stability index was 0.717 ± 0.1.

Q: How did the protein stability index turn out when VGGFRVLCVGLG was run?
A: Its protein stability index is 0.613 ± 0.04.

Q: With VGGGGEWCLVRL as the sequence, how does the protein stability index read?
A: Its protein stability index is 0.685 ± 0.013.

Q: With VGGGGRARRRGS as the sequence, how does the protein stability index read?
A: The protein stability index was 0.701 ± 0.013.

Q: For VGGVGGLWGGAV, which protein stability index is on record?
A: Its protein stability index is 0.69 ± 0.064.

Q: VGGVRGAGCVRG was tested. Which protein stability index did it give?
A: Its protein stability index is 0.705 ± 0.024.

Q: For VGGVWGLGVRPR, which protein stability index is on record?
A: The protein stability index was 0.693 ± 0.029.

Q: With VGGWGGVSLGGR as the sequence, how does the protein stability index read?
A: The protein stability index was 0.721 ± 0.1.

Q: How did the protein stability index turn out when VGIFQLCCALGG was run?
A: The protein stability index was 0.47 ± 0.085.

Q: Which protein stability index does the source give for VGILTSVQKHSG here?
A: Its protein stability index is 0.723 ± 0.16.
